We go through 25 molecules from US20260274981A1 (VIB VZW, published 2026).

Broadly, the koff is a measure of how fast the partners let go of each other.

Residue numbers refer to the chain shown, from its start.

First the molecules themselves.
B1: BBB00736 (VHH)
VHH: EVQLVESGGGLVQAGGSLRLSCAASGSIFSINAMGWYRQAPGKQRELVAVITSGGSTIYADSVKGRFTISRDNAENTVYLQMNSLRPEDTAVYYCNAHVGLKVPTIQELSLGFGSWGQGTLVTVSS
notes: also called variant of BBB00515
B2: BBB00740 (VHH)
VHH: B1 VHH with F29H
notes: Histidine mutant
B3: BBB00738 (VHH)
VHH: B1 VHH with S27H
notes: Histidine mutant
B4: BBB00741 (VHH)
VHH: B1 VHH with S30H
notes: also called histidine mutant of BBB00533
B5: BBB00739 (VHH)
VHH: B1 VHH with I28H
notes: as for B4
B6: BBB00745 (VHH)
VHH: B1 VHH with M34H
notes: Histidine mutant
B7: BBB00758 (VHH)
VHH: B1 VHH with L101H
notes: as for B4
B8: BBB00756 (VHH)
VHH: B1 VHH with V99H
notes: as for B4
B9: BBB00737 (VHH)
VHH: B1 VHH with G26H
notes: Histidine mutant
B10: BBB00677 (VHH)
VHH: EVQLVESGGGSVQPGGSLRLSCTASGRTFNYAMGWFRQAPGKNREFVATIDWKDGSSYYLDSVRGRFTIERDDAKNTVYLQMNSLRPEDAAVYTCAVGDGDYCSTYTCAAEVEYDYWGQGTLVTVSS
notes: also called variant of BBB00533
B11: BBB00729 (VHH)
VHH: B10 VHH with Y116H
notes: also called histidine mutant of BBB00515
B12: BBB00719 (VHH)
VHH: B10 VHH with T105H
notes: Histidine mutant
B13: BBB00718 (VHH)
VHH: B10 VHH with S104H
notes: as for B11
B14: BBB00707 (VHH)
VHH: B10 VHH with K53H
notes: Histidine mutant
B15: BBB00698 (VHH)
VHH: B10 VHH with N30H
notes: as for B11
B16: BBB00710 (VHH)
VHH: B10 VHH with S56H
notes: as for B11
B17: BBB00709 (VHH)
VHH: B10 VHH with G55H
notes: as for B11
B18: BBB00728 (VHH)
VHH: B10 VHH with D115H
notes: Histidine mutant
B19: BBB00704 (VHH)
VHH: B10 VHH with I50H
notes: as for B11
B20: BBB00708 (VHH)
VHH: B10 VHH with D54H
notes: Histidine mutant
B21: BBB00699 (VHH)
VHH: B10 VHH with Y31H
notes: Histidine mutant
B22: BBB00716 (VHH)
VHH: B10 VHH with D101H
notes: Histidine mutant
B23: BBB00695 (VHH)
VHH: B10 VHH with R27H
notes: Histidine mutant
B24: BBB00697 (VHH)
VHH: B10 VHH with F29H
notes: as for B11
B25: BBB00694 (VHH)
VHH: B10 VHH with G26H
notes: Histidine mutant

In the first test the target is T1, recombinant human TfR (2474-TR, R&D Systems), biotinylated (human, UniProt P02786 89-760, biotinylated with EZ-Link NHS-PEG4-Biotinylation Kit).
T1 construct: Bought protein; also called immobilized recombinant human TfR; biotinylated human TfR
T1 sequence (P02786 89-760 limits assumed): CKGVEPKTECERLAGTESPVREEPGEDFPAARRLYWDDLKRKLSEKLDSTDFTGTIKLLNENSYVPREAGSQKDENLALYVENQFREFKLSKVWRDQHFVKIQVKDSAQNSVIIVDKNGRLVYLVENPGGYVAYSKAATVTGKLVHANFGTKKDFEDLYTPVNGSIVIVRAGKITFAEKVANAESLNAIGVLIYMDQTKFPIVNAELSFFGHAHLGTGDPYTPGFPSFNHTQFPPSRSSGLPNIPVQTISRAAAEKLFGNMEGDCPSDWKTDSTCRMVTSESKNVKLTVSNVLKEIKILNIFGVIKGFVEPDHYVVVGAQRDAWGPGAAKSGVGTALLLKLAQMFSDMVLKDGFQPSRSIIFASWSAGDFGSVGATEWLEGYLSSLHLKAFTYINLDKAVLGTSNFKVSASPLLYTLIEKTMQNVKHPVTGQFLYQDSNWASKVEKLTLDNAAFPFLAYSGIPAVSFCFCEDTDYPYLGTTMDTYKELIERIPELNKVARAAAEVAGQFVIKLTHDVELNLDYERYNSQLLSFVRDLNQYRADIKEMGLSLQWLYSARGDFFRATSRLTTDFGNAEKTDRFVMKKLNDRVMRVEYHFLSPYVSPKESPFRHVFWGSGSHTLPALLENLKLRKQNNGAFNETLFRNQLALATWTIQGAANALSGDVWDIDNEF
The experiment in a line: SPR (Biacore), ratio of the off rates on human TfR at the two pH values; the printed number equals kd at pH 5.5 divided by kd at pH 7.4. As to the method:
(§1) E. coli TG1 bacteria were transformed with those plasmids and expressions induced. Crude extracts were prepared and analyzed for binding by flow cytometry on human TfR overexpressing cells. […] Next, off rates of these selected variants were determined on recombinant human TfR by surface plasmon resonance (Biacore, Marlborough, Massachusetts, United States). Biotinylated human TfR was captured on a streptavidin-coated SA sensor chip (Cytiva). Increasing concentrations of nanobodies were sequentially injected in a single cycle at a flow rate of 30 μL/min. The dissociation was monitored for around 20 min. A reference flow was used as a control for non-specific binding and refractive index changes. Several buffer blanks were used for double referencing. Off rates were derived after fitting the experimental data to the 1:1 binding model with the Biacore Evaluation Software.
(§2) Surface Plasmon Resonance (SPR) was used to measure the interaction between VHHs and human or cynomolgus TfR receptor. Human TfR (2474-TR, R&D Systems) and cynomolgus TfR (90253-C07H, Sino Biological) were biotinylated with the EZ-Link NHS-PEG4-Biotinylation Kit (ThermoFischer Scientific) according to the manufacturer instructions. The binding experiments were performed at 25° C. on a Biacore T200 instrument (Cytiva, Uppsala, Sweden) in HBS-EP+ buffer (10 mM HEPES, 150 mM NaCl, 3 mM EDTA and 0.05% v/v Surfactant P20). Biotinylated human TfR and cynomolgus TfR were captured on a SA sensor chip (Cytiva) at a density of around 250 RU. Increasing concentrations of VHHs were sequentially injected in one single cycle at a flow rate of 30 μl/min. The dissociation was monitored for 20 min. […] A reference flow was used as a control for non-specific binding and refractive index changes. Several buffer blanks were used for double referencing. Binding affinities (KD) and kinetic rate constants (kₒₙ, koff) were derived after fitting the experimental data to the 1:1 binding model with the Biacore T200 Evaluation Software 3.1 using the single cycle kinetic procedure.
(In general: Surface plasmon resonance follows binding to a sensor surface in real time, without labels.)
B1: the “off-rate ratio kd pH5.5/kd pH7.4” value was found to be 2.35.
Take B2: the “off-rate ratio kd pH5.5/kd pH7.4” value amounted to 2.32.
In the case of B3, the “off-rate ratio kd pH5.5/kd pH7.4” value is 1.86.
For the molecule B4, the “off-rate ratio kd pH5.5/kd pH7.4” value was 2.74.
Regarding B5, the “off-rate ratio kd pH5.5/kd pH7.4” value worked out at 2.93.
As to B6, the “off-rate ratio kd pH5.5/kd pH7.4” value came out at 2.08.
In the case of B7, the “off-rate ratio kd pH5.5/kd pH7.4” value amounted to 7.24.
For B8, the “off-rate ratio kd pH5.5/kd pH7.4” value stood at 2.58.
For B9, the “off-rate ratio kd pH5.5/kd pH7.4” value was found to be 2.32.

For a further test, the target named is T1, recombinant human TfR (2474-TR, R&D …). Described as above. The source holds these as a separate data set. As to the method:
as §1, with “In brief, DNA was synthesized by Genscript (Piscataway, New Jersey, United States) and cloned into an E. coli compatible expression plasmid according to standard methods. E.” for “E.”
As for B10, the “off-rate ratio kd pH5.5/kd pH7.4” value was 1.74.
In the case of B11, the “off-rate ratio kd pH5.5/kd pH7.4” value worked out at 2.01.
Consider B12, for which the “off-rate ratio kd pH5.5/kd pH7.4” value was 1.55.
The same measure, in the same setting: next, B13: 2.21.
B14: the “off-rate ratio kd pH5.5/kd pH7.4” value was 1.44.
For the molecule B15, the “off-rate ratio kd pH5.5/kd pH7.4” value stood at 2.15.
Turning to B16, the “off-rate ratio kd pH5.5/kd pH7.4” value amounted to 2.84.
Take B17: the “off-rate ratio kd pH5.5/kd pH7.4” value was determined as 1.84.
As for B18, the “off-rate ratio kd pH5.5/kd pH7.4” value turned out to be 1.62.
Consider B19, for which the “off-rate ratio kd pH5.5/kd pH7.4” value amounted to 2.55.
Take B20: the “off-rate ratio kd pH5.5/kd pH7.4” value was 1.57.
With B21, the “off-rate ratio kd pH5.5/kd pH7.4” value is 1.64.
On the same count and under the same terms, the result for B22 reads 1.7; that for B23, 1.51; that for B24, 1.79.
The same measure, in the same setting: next, B25: 1.35.

The target is the same in another test. The experiment in a line: SPR (Biacore), biotinylated human TfR captured on an SA chip, VHH injected, 1:1 dissociation fit, pH 7.4. Here is the method:
as §1, §2
For the molecule B1, the koff amounted to 0.00782 s⁻¹.
For B2, the dissociation rate constant (koff) came to 0.00954 s⁻¹.
On to B3, for which the koff was 0.00918 s⁻¹.
On to B4, for which the koff was found to be 0.00551 s⁻¹.
In the case of B5, the dissociation rate constant (koff) was found to be 0.00761 s⁻¹.
Turning to B6, the koff was determined as 0.00773 s⁻¹.
For the molecule B7, the koff came out at 0.00908 s⁻¹.
Still for that read-out and setting: the result for B8 reads 0.00735 s⁻¹; that for B9, 0.00861 s⁻¹.

The next test has the same target. Description: SPR (Biacore), biotinylated human TfR captured on an SA chip, VHH injected, 1:1 dissociation fit, pH 5.5. As to the method:
as §1, §2
As to B1, the koff was found to be 0.0183 s⁻¹.
For B2, the koff was 0.0221 s⁻¹.
In the case of B3, the koff is 0.0171 s⁻¹.
Still for that read-out and setting: the result for B4 reads 0.0151 s⁻¹; that for B5, 0.0223 s⁻¹; that for B6, 0.0161 s⁻¹.
For B7, the koff was found to be 0.0657 s⁻¹.
Consider B8, for which the koff came out at 0.019 s⁻¹.
Regarding B9, the koff is 0.02 s⁻¹.

The target is the same in the next test. The test is described as above. The source holds these as a separate data set. Here is the method: as §1, with “In brief, DNA was synthesized by Genscript (Piscataway, New Jersey, United States) and cloned into an E. coli compatible expression plasmid according to standard methods. E.” for “E.”
Regarding B10, the koff came to 0.00946 s⁻¹.
Regarding B11, the koff turned out to be 0.0113 s⁻¹.
As for B12, the koff is 0.0091 s⁻¹.
As for B13, the koff turned out to be 0.0154 s⁻¹.
Same read-out and setting: next, B14: 0.00632 s⁻¹.
Take B15: the koff came to 0.0109 s⁻¹.
As to B16, the koff came out at 0.0126 s⁻¹.
For the molecule B17, the dissociation rate constant (koff) was determined as 0.00937 s⁻¹.
As for B18, the koff was 0.0127 s⁻¹.
For B19, the koff was 0.00911 s⁻¹.
As to B20, the off-rate constant (koff) amounted to 0.0086 s⁻¹.
With B21, the koff worked out at 0.00858 s⁻¹.
For the molecule B22, the koff amounted to 0.00904 s⁻¹.
Take B23: the koff was found to be 0.00874 s⁻¹.
As to B24, the koff is 0.0107 s⁻¹.
Same read-out and setting: next, B25: 0.00728 s⁻¹.

The next test shares this target. Description: SPR (Biacore), biotinylated human TfR captured on an SA chip, VHH injected, 1:1 dissociation fit, pH 7.4. The source holds these as a separate data set. As to the method: as §1, with “In brief, DNA was synthesized by Genscript (Piscataway, New Jersey, United States) and cloned into an E. coli compatible expression plasmid according to standard methods. E.” for “E.”
In the case of B10, the koff was 0.00545 s⁻¹.
For the molecule B11, the koff amounted to 0.00562 s⁻¹.
Regarding B12, the koff turned out to be 0.00586 s⁻¹.
Still for that read-out and setting: next, B13: 0.00695 s⁻¹; B14: 0.00439 s⁻¹.
With B15, the koff turned out to be 0.00506 s⁻¹.
B16: the koff amounted to 0.00444 s⁻¹.
Same read-out and setting: next, B17: 0.00511 s⁻¹; B18: 0.00787 s⁻¹; B19: 0.00358 s⁻¹.
Turning to B20, the koff was found to be 0.00547 s⁻¹.
With B21, the koff came to 0.00524 s⁻¹.
Regarding B22, the koff was 0.00533 s⁻¹.
For B23, the koff is 0.00577 s⁻¹.
B24: the off-rate constant (koff) was 0.00596 s⁻¹.
For the molecule B25, the koff turned out to be 0.00538 s⁻¹.
